In patent US10682427B2, “Intra-operative imaging” (BRACCO IMAGING S.P.A., priority 2014, dated 2020):
Several values for one entry are separate records, joined by “and”; a condition that tells them apart may be missing. Equal values may be shown once. Read-outs that look alike come from different tables or passages of the source.

Experiments:
αvβ3 integrin = αvβ3 integrin (Homo sapiens, UniProt P05106+P06756); experiment: In vitro competitive binding assay with biotinylated vitronectin; conditions: competitor biotinylated vitronectin 1 μg/mL, average value from a triplicate test, read-out: IC50 (vitronectine IC50)
Procedure: (§1) The affinity of DA364 for its specific targeted (the integrin αvβ3) and its crossreactivity for other integrins (e.g. αvβ1, αvβ5) was assessed by in vitro binding tests.
(§2) A 96-well microtiter plate (MediSorp, Nunc) was coated overnight at 4° C., with tested integrins (0.5 μg/mL, diluted in coating/washing buffer (20 mM Tris HCl pH 7.4; 150 mM NaCl; 1 mM MnCl2; 0.5 mM MgCl2; 2 mM CaCl2). After coating, the plate is rinsed with washing buffer and then incubated in blocking buffer (3% BSA in coating buffer) for 2 h at room temperature (RT) (24° C. in Thermomixer, under shaking). The plate was then rinsed in washing buffer and incubated at RT for 3 h with DA364 (concentration range from 5000 to 0.005 nM). DA364 solutions were prepared by serially diluting a stock solution of the NIR agent in 1% BSA in coating buffer in presence of biotinylated vitronectin (1 μg/mL, cod. HVN-U605, Molecular Innovations). The plate is then rinsed again and incubated with Streptavidin-HRP (cod.EG RPN 1051, GE Healthcare) (1:10000 in PBS) 1 h at RT, binding the biotinylated vitronectin. After additional washes in PBS, the plate was incubated with TMB solution (3,3′,5,5′-tetramethylbenzidine) (cod.T-0440, Sigma-Aldrich) for 5-10 min and the colorimetric reaction was then stopped by addition of 2 N sulfuric acid. The quantification of the IC50 for DA364 was performed by measuring the competitor (biotinylated vitronectin) by reading the absorbance at 450 nm. IC50 values were determined by least-square non-linear regression analysis.

αvβ1 integrin = αvβ1 integrin (Homo sapiens, UniProt P05556+P06756); experiment: as above; conditions: competitor biotinylated vitronectin 1 μg/mL, read-out: IC50 (vitronectine IC50)
Procedure: as §1, §2

αvβ5 integrin = αvβ5 integrin (Homo sapiens, UniProt P06756+P18084); experiment: as above; conditions: competitor biotinylated vitronectin 1 μg/mL, read-out: IC50 (vitronectine IC50)
Procedure: as §1, §2

[1] = Plasma kinetic after single intravenous administration (HPLC with fluorimetric detector); format: in vivo, CD-1(ICR)BR mice; conditions: mice; for plasma concentration (mean from a triplicate result): LOD=0.0012 nmol/mL; for clearance: read-out: total plasma clearance; for Vd: read-out: volume distribution at steady state (Vdss)
Procedure: The plasma kinetic of the NIRF probe DA364 was evaluated after a single intravenous administration in CD-1(ICR)BR mice.
The fluorescent probe is administered at dose of 0.4 μmol/kg, corresponding to about 10 times the effective dose used in imaging studies (1 nmol/mouse, considering an average mouse body weight of 25 g). Animals were sacrificed at different time points up to and including 14 days after treatment and blood samples were collected for the determination of DA364 content, performed by using an HPLC method coupled with a fluorimetric detector.
The NIR agent DA364, pre-warmed at room temperature, was intravenously injected at a dose of 0.4 μmol/kg, via tail vein, at an injection rate of 1 mL/min with a Harvard infusion pump. The administered dose corresponds to about 10 times the effective dose used in imaging studies. The intravenous administration route was chosen as possible route of exposure for humans.
Animals (three for each time point) were sacrificed before and 5 min, 10 min, 20 min, 30 min, 60 min, 4 h, 24 h, 48 h, 7 days and 14 days after DA364.
The day of sacrifice animals were anesthetized with sevoflurane, at an expiratory concentration of 3-4% in induction and 2-3% in maintenance and then sacrificed by decapitation. Blood for HPLC determinations (at least 0.5 mL) was collected using heparinized tubes. Plasma obtained after centrifugation (2100 g for 10 min) was stored at −80° C. until the day of analysis.
Determination of the amount of DA364 in plasma samples was carried out by an HPLC method coupled with a fluorimetric detector previously prompted.
Plasma samples (S) were prepared by adding 100 μL of acetate buffer and 100 μL of a Methanol Acetonitrile solution (50:50) to 100 μL of diluted plasma. Tubes will be stirred and subsequently centrifuged at 4° C. for 10 minutes at 13000 g. Ten microliters of the clear supernatant will be injected into the HPLC equipment. Appropriate dilution was performed in case of plasma samples too concentrated.
The HPLC determination was performed by interpolating calibration curves of DA364 in plasma and organs, prepared by assaying calibration standard samples (CAL) (6 concentrations, 3 replicates for each concentration) of the fluorescent agent DA364.
Blood for HPLC determinations (at least 0.5 mL) was collected in heparinized tubes. Plasma concentration of DA364 was measured by an HPLC method coupled with a fluorimetric detector.
To evaluate the systemic exposure, Cmax and the area under the plasma DA364 concentration curve as a function of time (AUC) were calculated by non-parametric methods using the computer program WIN-NONLIN 6.3 (WinNonlin 6.3 SCI Software, Lexington, Ky., USA). For the tested dose, a non-compartmental analysis was performed using the average plasma concentrations from 3 animals for each time point. For Cmax and the corresponding tmax the observed values were reported. Area under the plasma concentration-time curve to the last observable plasma concentration (AUC(0 to t)) was calculated from observed data using the logarithmic trapezoidal method. […].

[2] = Fluorescence quantum yield with integrating sphere; format: physicochemical; conditions: excitation 625 nm, 15 min at RT
Procedure: Fluorescence quantum yields (0%) measurements were performed on FluoroLog-31IHR-320 (HORIBA-JobinYvon) with integrating sphere accessory.
The measurements were carried out using an excitation wavelength of 625 nm and using a 450W Xenon Light Source. Detection was performed on TBX-04 detector from 645 to 850 nm (excitation and emission slit were 1.8 nm).
The fluorescence quantum yield of DA364 solution was measured both in human serum SERONORM (human-based control serum), NycomedPhama, batch 1109514) and in Phosphate Buffer Saline (PBS).
Solutions of the NIR agent were prepared in PBS and in human serum with absorbance lower than 0.1. Fluorescence (0%) measurements were carried out after incubation of the NIR agent at Room Temperature (RT) for 15 min.

[3] = CD-1(ICR)BR, mouse, plasma, iv, 0.4 umol/kg, 0.4 μmol/kg i.v.
[4] = CD-1(ICR)BR, mouse, plasma, iv, 0.4 umol/kg, 0.4 μmol/kg i.v., per animal

**Q.** Which IC50 (αvβ3 integrin) does the source give for `CC[N+]1=C(/C=C/C=C/C=C2/N(CCCCCC(=O)NC[C@@H]3C[C@@H]4CC[C@H]5C(=O)N[C@@H](CCCNC(=N)N)C(=O)NCC(=O)N[C@@H](CC(=O)O)C(=O)N[C@H]3C(=O)N45)c3ccc4c(S(=O)(=O)O)cc(S(=O)(=O)O)cc4c3C2(C)C)C(C)(C)c2c1ccc1c(S(=O)(=O)[O-])cc(S(=O)(=O)O)cc21` [DA364] here?
**A.** 3.76 nM

**Q.** What about the IC50 (αvβ1 integrin) of the same compound?
**A.** 28 nM

**Q.** What about the IC50 (αvβ5 integrin) of the same compound?
**A.** 281 nM

**Q.** And the “plasma concentration (mean from a triplicate result)” value (shortened to “plasma concentration”) ([1]; 1440 min after 0.4 μmol/kg i.v.)?
**A.** <LOD

**Q.** And the “plasma concentration” value ([1]; 2880 min after 0.4 μmol/kg i.v.)?
**A.** <LOD

**Q.** What about the “plasma concentration” value ([1]; 10080 min after 0.4 μmol/kg i.v.) of the same compound?
**A.** <LOD

**Q.** And the “plasma concentration” value ([1]; 20160 min after 0.4 μmol/kg i.v.)?
**A.** <LOD

**Q.** And the AUC(0-inf) [1, 3]?
**A.** 1.28 µM·h

**Q.** And the Cmax [1, 3]?
**A.** 1630 nM

**Q.** And the Tmax [1, 3]?
**A.** 5 min

**Q.** And the clearance [1, 4]?
**A.** 0.15 mL/min

**Q.** What about the Vd [1, 4] of the same compound?
**A.** 0.01 L

**Q.** And the half-life ([1]; CD-1(ICR)BR, mouse, plasma, iv, 0.4 umol/kg, 0.4 μmol/kg i.v., read-out: half life associated with the terminal elimination phase)?
**A.** 64 min

**Q.** What about the clearance [1, 3] of the same compound?
**A.** 5 mL/min/kg

**Q.** What about the Vd [1, 3] of the same compound?
**A.** 0.329 L/kg

**Q.** What about the level at time molar at 5 min ([1]; CD-1(ICR)BR, mouse, plasma, iv, 0.4 umol/kg, 5 min after 0.4 μmol/kg i.v., read-out: plasma concentration (mean from a triplicate result)) of the same compound?
**A.** 1630 nM

**Q.** What about the level at time molar at 10 min ([1]; CD-1(ICR)BR, mouse, plasma, iv, 0.4 umol/kg, 10 min after 0.4 μmol/kg i.v., read-out: plasma concentration (mean from a triplicate result)) of the same compound?
**A.** 1100 nM

**Q.** What about the level at time molar at 20 min ([1]; CD-1(ICR)BR, mouse, plasma, iv, 0.4 umol/kg, 20 min after 0.4 μmol/kg i.v., read-out: plasma concentration (mean from a triplicate result)) of the same compound?
**A.** 612 nM

**Q.** What about the level at time molar at 0.5 h ([1]; CD-1(ICR)BR, mouse, plasma, iv, 0.4 umol/kg, 30 min after 0.4 μmol/kg i.v., read-out: plasma concentration (mean from a triplicate result)) of the same compound?
**A.** 518 nM

**Q.** What about the level at time molar at 1 h ([1]; CD-1(ICR)BR, mouse, plasma, iv, 0.4 umol/kg, 60 min after 0.4 μmol/kg i.v., read-out: plasma concentration (mean from a triplicate result)) of the same compound?
**A.** 278 nM

**Q.** And the level at time molar at 4 h ([1]; CD-1(ICR)BR, mouse, plasma, iv, 0.4 umol/kg, 240 min after 0.4 μmol/kg i.v., read-out: plasma concentration (mean from a triplicate result))?
**A.** 51 nM

**Q.** What about the “Φ% (fluorescence quantum yield)” value ([2]; PBS) of the same compound?
**A.** 36.5% and 36.5 (SD 2.37) %

**Q.** And the “Φ% (fluorescence quantum yield)” value ([2]; SERONORM (human-based control serum))?
**A.** 57.5% and 57.5 (SD 1.26) %
